Measured values as given in patent US11419948B2, “Functionalized microgels with fibrin binding elements” (Georgia Tech Research Corporation, priority 2013, dated 2022).

Columns and labels:
fibrinogen = target: T1, fibrinogen (Homo sapiens, UniProt P02671+P02675+P02679); experiment: SPR on immobilized fibrinogen surface; type: binding
T1 sequence (P02671 20-629 limits assumed): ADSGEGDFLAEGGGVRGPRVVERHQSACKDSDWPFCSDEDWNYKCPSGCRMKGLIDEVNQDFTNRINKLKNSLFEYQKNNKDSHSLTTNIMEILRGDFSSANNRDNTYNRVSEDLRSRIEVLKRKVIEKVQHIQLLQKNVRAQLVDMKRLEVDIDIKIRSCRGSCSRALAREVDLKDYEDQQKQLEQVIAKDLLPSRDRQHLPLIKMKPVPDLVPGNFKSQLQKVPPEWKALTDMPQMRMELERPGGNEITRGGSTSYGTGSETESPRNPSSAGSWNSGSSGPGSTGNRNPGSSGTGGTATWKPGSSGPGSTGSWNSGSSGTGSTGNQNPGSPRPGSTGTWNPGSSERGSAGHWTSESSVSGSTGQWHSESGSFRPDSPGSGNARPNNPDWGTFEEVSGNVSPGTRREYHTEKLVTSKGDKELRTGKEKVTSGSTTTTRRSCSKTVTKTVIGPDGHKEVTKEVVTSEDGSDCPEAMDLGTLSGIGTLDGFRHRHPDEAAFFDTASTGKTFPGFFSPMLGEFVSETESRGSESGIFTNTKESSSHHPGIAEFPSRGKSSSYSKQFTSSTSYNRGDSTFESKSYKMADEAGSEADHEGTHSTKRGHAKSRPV
T1 sequence (P02675 31-491): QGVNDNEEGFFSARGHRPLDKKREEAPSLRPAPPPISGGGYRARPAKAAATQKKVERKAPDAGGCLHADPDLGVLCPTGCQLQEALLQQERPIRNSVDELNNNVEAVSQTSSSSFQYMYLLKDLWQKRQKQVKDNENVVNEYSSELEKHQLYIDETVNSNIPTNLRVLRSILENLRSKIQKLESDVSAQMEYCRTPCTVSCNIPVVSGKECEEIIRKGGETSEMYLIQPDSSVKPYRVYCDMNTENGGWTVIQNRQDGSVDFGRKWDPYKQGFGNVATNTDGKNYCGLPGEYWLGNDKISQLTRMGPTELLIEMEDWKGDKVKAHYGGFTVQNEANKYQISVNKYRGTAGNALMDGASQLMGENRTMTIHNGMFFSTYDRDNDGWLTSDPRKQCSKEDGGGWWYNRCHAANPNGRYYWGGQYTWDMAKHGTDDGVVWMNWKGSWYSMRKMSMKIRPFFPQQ
T1 sequence (P02679 27-453): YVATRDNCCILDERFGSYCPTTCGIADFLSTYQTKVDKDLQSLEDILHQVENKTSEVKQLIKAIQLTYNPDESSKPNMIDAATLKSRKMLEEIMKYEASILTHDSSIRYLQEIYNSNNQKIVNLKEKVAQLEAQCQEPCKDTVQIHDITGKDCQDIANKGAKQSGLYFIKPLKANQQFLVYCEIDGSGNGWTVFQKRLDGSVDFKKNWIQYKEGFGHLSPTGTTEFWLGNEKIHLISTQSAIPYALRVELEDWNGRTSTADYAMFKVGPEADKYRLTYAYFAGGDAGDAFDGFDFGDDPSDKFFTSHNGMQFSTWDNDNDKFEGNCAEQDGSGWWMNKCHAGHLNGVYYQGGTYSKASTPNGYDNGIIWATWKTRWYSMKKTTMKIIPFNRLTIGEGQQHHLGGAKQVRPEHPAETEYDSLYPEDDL
Protocol: Based on previous SPR protocols developed in the lab^4, a thin fibrin layer was immobilized on the surface of a gold SPR chip via layer-by-layer deposition of fibrinogen-thrombin-fibrinogen^3. SdFvs were flowed across the fibrin surface and the binding interactions were evaluated and recorded. Additionally, antibody fragment binding interactions with a surface of immobilized fibrinogen was used to investigate the specificity to fibrin. All SPR data was examined and analyzed with Scrubber 2 and Clamp XP (Center for Biomolecular Interactions Analysis, University of Utah). Data simulation curves were generated based on a Langmuir 1:1 binding model assuming only a single ligand-analyte interaction.

fibrin E Regions = experiment: ELISA against adsorbed fibrin E Regions; type: binding; settings: E Region dilutions
Protocol: This was determined through ELISAs against plates coated with adsorbed fibrin D-Dimers or E Regions.
ELISA set-up and analysis was identical to that performed for the plasma-binding ELISA, the main exception being a substitution of human plasma dilutions for D-Dimer or E Region dilutions adsorbed to the 96-well plates. Both D-Dimer and […]

B1: H6: fibrin-specific human sdFv clone from phage biopanning, SEQ ID NO: 1 (protein)
VHH: QVQLLESGGGLVQPGGSLRLSCAASGDRFTHNDMGWVRQAPGKGLEWVSTIPTTDGSTYYADSVKGRFTISRDNSKSTLYLQMNSLRAEDTAVYYCATGYMWKAPAYVKYWGQGTLVTVSSAAAEQKLISEEDLNSAAHYTDIG
binding to fibrinogen (fibrinogen): negligible binding
binding to E Region (fibrin E Regions): negligible binding
